The values that follow come from a protein production outcome set (Wang et al. 2014).

The nature of the data set: label from the status in PepcDB records.
As to “MRDTIPVTILSGSLGAGKTTLLNHLLTEAGDRDIAVLVNDMGTVNVDAELIAEGSELDVDDGVAELSNGCICCELQDDLETAVVRLADDRDFDALVVESSGISEPAPVARLFTTESRVAALYRVDTLVTVLDTRLFLDSFAGETPERRGSGEASADGDGDDTEADGADRPLSDLMVEQVELSNLVVLNKTDLCTDEEMDEAEELVRALQPDAETIRTTFSQVDPDRLFDRALFDQTEISDLPGWKRALAESGHGHGEGSHDHGGDSHETDAHEGDTGHGHDDHHHPEEVYGVTSFTYRRRRPFHPDRLAEVLQDLPSGVVRSKGTVWLAGSERRVVIGQAGPSIRAEAQGPWIASLPEVEQDMYRSNRPELDWHDEHGDRRTELVFIGTDYDESALRTALDDALVTDEEWTESESLTGPFPAEQGEEAVIRSP”, the protein production entry was “not failed”. Turning to “MDKIRTLLLRLPRRQKRVLQVVTDILLVWVALWMAFVVRLGFDDLNNPFIVHFWLFASAPIVAIPLFIRFGMYRAVMRYFGNDALIAIVKAVTLSALTLALVVYVYSNHQTVVPRSIVFNYWWLSMVMIGGLRLAMRQYFLGDWFTTAQHVPFTNRDDGLPKVAIYGAGAAGNQLVAALRLGRLMRPVAFIDDDGSIADRMIAGLQVYKPKHLQQMIDDTGAEEILLAIPSSSRSRRREILGYLEGFPLHVRSVPGFMDLASGRVKVDDIQEVDIADLLGRDAVPAQVDLLAHCIKGQTVLVTGAGGSIGSELCRQILLQGPSTLILLDHSEFNLYSILSELEQRVSRESRLVKLLPILGSVRNYEKLLSVMRTWSVDTVYHAAAYKHVPMVEHNIAEGVLNNVMGTLNTAQAALQCGVANFVLISTDKAVRPTNVMGSTKRLAELTLQALSKELAPVLFDDLSNVSRVNKTRFTMVRFGNVLGSSGSVIPLFHKQIKSGGPLTVTHPKITRYFMTIPEAAQLVIQAGSMGQGGDVFVLDMGEPVRIVELAEKMIHLSGLSVRSEKNPHGDIAIEFTGLRPGEKLYEELLIGDNVAATQHPMIMSANEDHLPWETLKLKLAELLAALELDDYARVRQLLRETVSGYTPDGEIVDWVYQQRRLKP”, the protein production result is “failed”. Take “MPSTLQGTFHTYRIIRRLGQGAFGEVSLAGVLETGEVVALKRIHIRNTGGIPDVVVREIKALQSVSHPNVVALLDVFPKGQAIYLVQEYCTTDLAALLRRLPAPPPERIAKGLMLQLCRGLEALHAEGIMHRDVKPSNTLLSAASGTAKLADCGLARPLDGGERPAYTHAVATRWYRAPELLYGARAYGPAVDVWALGLVFAELLGLSPLVPGDNDIDQLGRVIATFGSMEPVWLGVRALPDWGKIAFPHCEPLPLGDLLPGAPAAALEFLAAFLRYDPAKRITAACAVRSTYLTATQPL”: the protein production entry is given as “failed”.

As for “MYEPGTEQINCNGRLIELPTLEVVRPAPKMPSDANIDWLLHIYFTRREFTRCRRLIERELNRHLNPEYLYFVQGLIDREEGNHIEALRHLQKSAELNPRNIETYKEIGRTLYIMGRFSQALGVFREAEQRSSRQDHEIYHYLGELLYRAATTQSQKDVASQQQDEARTYFELAVQSGRKLESYVRLAELYRKDKQYQKAIEILENCLHLTPENSEVLIEISVLYLKINETQKAHDRLAEVVSIERKCSPKGLLAFGAILQSRNDIDGALSKYSQIANAEPEIAELWNNIGLCFFKKQKFIVAISSLRKSVWLSPLNYNALYNLSLIYIASEQYASAFHTLAAAINLRKDNAECYMLLGLCLRKLDDMENAFVALERASSMATGQQGAGRNPLVVLNFALFCYETGRLALSTEQYNRFMSQAQDLLLPTEYKFQATKLKSLLRISNQGNGILLDSADMGESDLGHNRATELLPDELPLEVNAVVSQN”, the protein production entry is “failed”. As for “MSLNVKNDFSILIIEDDKEFADMLTQFLENLFPYAKIKIAYNPFDAGDLLHTVKPDVVMLDLMMVGMDGFSICHRIKSTPATANIIVIAMTGALTDDNVSRIVALGAETCFGKPLNFTLLEKTIKQLVEQKKATSEGHHHHHH”, the entry is “not failed”; as for “MNTKALIGILMFLLLITWSSKGFAKTAEATVTVNIRNSPSTSSKVLGVFPKGFKAQVLSSTGGWVKISFDGVVGYVKSDYIKLTKDSSTSNAVKSSTNTRQVVSQMPMATVLKDNARVRSNMSTSSKILKTLKKGSKVYVLARERNGWIKVKTLDGTVGYMAYYLLKMSTSHTTKISSRGGYDREAQVAYNGSLADRILGFAKNLLGIRYRYGGSSPSTGFDCSGFVQYVFRNFGISLERTAADMAATDGVRISYNELRPGDLVFFDTDGGRNYINHVGIYLGGGKYIHASSARGCVTISDLTSKYGTSFMMAKRVIR”, “failed”; as for “MNQKDVKLTVFSSDEKSFMVTATLVEKAGHAFLINSKFTQSDSKEIVEYLKKNNLSLDKIFIIHGDPDYYFGLESIKAVYPEAIAYATESTVEHIVHSVLGKLKVWKDALGENAPSNVVLPQVFKEKAIDFQGLTFELVGLEHYRTSLFNKELKVLIGGIDVFNEIHVFLADTSSKAAMEAWIENLKVLQALHADIIVPSHGSIEKSLNNQALTATMDYLRTAVQASEESGTSKDFVAKLEAAYPDYANKGVLELSAKVVTKELEHHHHHH”, “failed”. As to “MILFADYNTPYLFAISFVLLIGLLEIFALICGHMLSGALDAHLDHYDSITTGHISQALHYLNIGRLPALVVLCLLAGFFGLIGILLQHACIMVWQSPLSNLFVVPVSLLFTIIAVHYTGKIVAPWIPRDHSSAITEEEYIGSMALITGHQATSGNPCEGKLTDQFGQIHYLLLEPEEGKIFTKGDKVLIICRLSATRYLAENNPWPQIL”, the protein production entry was “failed”. In the case of “LESSMNKFHALFDSVMDACVIIDKRGVIKECNAALQTLLGVEDKTALVGTSLTQFHLADTFMGSAVQIAQSVEDVLKQGLLKFEADITDSQGQSIPAEVTLKSIELNTERFVLATYHNLAERRLVDRLIRHERNLLKNVLGMSPIGVWVCVNGTCRYVNAQMTLM”, the protein production entry is given as “failed”. As for “MTWLLIFASLAYVIFLFAVATWGDRLGSWANKISHKPVVYSMSLAIYCTSWTYYGAVGNAAVDGWAFFPILLGPILLFLFGIRILEKLVSVSKQQNITSIADFISSRFGKRRRLAVAVTAIAAVAIIPYIALQLKAVGISFAVLTESSGVMAQFSIKELGAAALMAIFAMLFGTRHVEVTEYRSGMILAIAVESMIKLVALLAAGVFAWFLIQGDAQSDLFSSFSDATKPQWSFAAFGEFEFIVQTLMAAGAILCLPRQFHVAVVDNVDVRHLRTARWGFPLYLALTAAAIVPIAIAGTFYLSATTDGSTFALQLPLLKDQLWLSLVIFIGGISAATAMVIIASVTLSTMITNDVIMPILLQRESRLPLKHRRREYDRALLLIRRVAIAVTMVLSFLCYYFWAARTNLVSIGLLAFSLVLQLLPALLAALYWRKGHARGVYAGLAAGSVGWVLAVLIPLYTDLQLTDVEIITRGTVVSLALNCFGFIVFSLLAKPRLVDRIQATAFVKPRAALPDLHFNKNDSATNADMLLLLRTFLGAERAQQLMQYYQRPENTELPLEGVAEKTFISFVERAIAGVLGSATARSLVDAALRDKQLNLEEVVHFFDDTTQALQTQQSILFSSLENLAQGISVVDAELRLVAWNKRYMDLFQYPEGMVKPGQPIATLIRYNAERGECGPGDVDGLVNKRLRYMQLGSAHRFIRRRADGRVIEMVGNPLPTGGFVTSFTDITSHVETQQALEDANIDLEQRVDVRTQEIREINQELTAEIDRRRQVEDELKKAKAEAEATNASKTRFLALASHDILQPLNAARLYLSAIQEKELSERNLSLVGKLDTALGSTEHLLSTLLSIAKMDQGALKPQFRHVQLSSLLEPLVEEYAVLAEQRKLDFRAFYKDRPVYTDPTYLRRIVQNFLSNAIKYTQRGSVLLGVRKRGDELQIAVWDTGPGIAAQQQNKVFDAFYRVQNQTVDGVGLGLSVAQRMGEQLNCDVQVESVEGKGSCFSVRVPLGNAAQVVSRPKKQLEDALSDPLQLIVVDDDNENLSALSALLNKWGCEALTFNRYSKALAYAKAHSQNKAPHGLLLDYQLGDGDGLQLAQELRDIWQQQIPAALVTAMRDDAVKQAARKSGLQFLPKPAKPAALKAFLKYISTRKAGGARS”, the protein production entry is listed as “failed”. The result for “MAMPEIDALLGLSFCLYFFDNKQHKLPHIHVKYGSYELIIAIETGECLEGYLPNKQRKRAENHILEHREQLMVMWNKAVNGENPGKLGDLCLEHHHHHH” reads “failed”; that for “MTAFRQRPLRLGHRGAPLKAKENTLESFRLALEAGLDGVELDVWPTRDGVFAVRHDPDTPLGPVFQVDYADLKAQEPDLPRLEEVLALKEAFPQAVFNVELKSFPGLGEEAARRLAALLRGREGVWVSSFDPLALLALRKAAPGLPLGFLMAEDHSALLPCLGVEAVHPHHALVTEEAVAGWRKRGLFVVAWTVNEEGEARRLLALGLDGLIGDRPEVLLPLGG”, “not failed”.

Take “MSRILITGAAGMVGRALLEELDEHDVFATDLVPPKATGAVTWLPMDVTTDDPDRIVGEVRPQVVIHLASIVTPGVARAVAHRVDVGGTRAVLDACLAHGVRRLVVTSSGAAYGYHADNPMPLRESDPLRGNPEFAYADHKRQVEEILAEARQSAPQLEQVVLRVGTVLGAGTENQITALFRKPRLLAVRGSESPFVFIWTRDLARILARAAGEGPAGIYNVAGDGAMGVSDLARALGKPVLRLPALTLKAALALARPLGLSRYGPEQVRFLQYRPVLANDALKQVFGYVPELASAEVFDLWRREAGL”: the protein production result is reported as “failed”.

In the case of “MVIASIVIYKHSYSDLKQTLDSLLAVSSINKIVLVDNDHSDWASTYHHPKITYLKSDGNFGFGYGHNYAIKRFAAQSDYFLICNPDIVFESSEFEKLLNFIQTREEALFLPKIVYENGENQYGARLLPSPFNLFARRFSPKYAEQLDEDYLLKNFDLSKPIFAPYLHGCFMLFRSKALLELGGFDERFFMYMEDVDLSRRCAEKFGNIYYPLAQVIHLHEQGSYKNKTLLKAHLKSAWQYFCKWGWLYDAQRSSLNGKCLKQRNG”, the protein production result is “failed”. The result for “MTTDIDLEQGGAFGYHRRSLDGSDVSVYYSDGEDVMSCYSYFYSTTGGSYEYEGDQSRKVSSVMSPSSSEIDDDDATAPPEKDCRICHLGVETSGGGAIELGCSCKDDLAVAHRQCAETWFKIKGDKTCEICQSVARNVGGANEMVGSTMEERELRNGEETAAGEGGGATVVENRWQPQRVVNLVLACMVFGFFISWIFHFHVSSSS” reads “failed”; that for “RIVGELEQMVSEDVPLDHRVHARIIGARGKAIRKIMDEFKVDIRFPQSGAPDPNCVTVTGLPENVEEAIDHILNLEEEYLAD”, “not failed”. As for “MWESKFVKEGLTFDDVLLVPAKSDVLPREVSVKTVLSESLQLNIPLISAGMDTVTEADMAIAMARQGGLGIIHKNMSIEQQAEQVDKVKRSESGVISDPFFLTPEHQVYDAEHLMGKYRISGVPVVNNLDERKLVGIITNRDMRFIQDYSIKISDVMTKEQLITAPVGTTLSEAEKILQKYKIEKLPLVDNNGVLQGLITIKDIEKVIEFPNSAKDKQGRLLVGAAVGVTADAMTRIDALVKASVDAIVLDTAHGHSQGVIDKVKEVRAKYPSLNIIAGNVATAEATKALIEAGANVVKVGIGPGSICTTRVVAGVGVPQLTAVYDCATEARKHGIPVIADGGIKYSGDMVKALAAGAHVVMLGSMFAGVAESPGETEIYQGRQFKVYRGMGSVGAMEKGSKDRYFQEGNKKLVPEGIEGRVPYKGPLADTVHQLVGGLRAGMGYCGAQDLEFLRENAQFIRMSGAGLLESHPHHVQITKEAPNYSL”, the entry is “not failed”; as for “MSLDSKTAPAFSLPDLHGKTVSNADLQGKVTLINFWFPSCPGCVSEMPKIIKTANDYKNKNFQVLAVAQPIDPIESVRQYVKDYGLPFTVMYDADKAVGQAFGTQVYPTSVLIGKKGEILKTYVGEPDFGKLYQEIDTAWRNSDAEGHHHHHH”, “not failed”.
